These results are taken from the DeepSol protein solubility set.

The data set can be described thus: soluble on expression in E. coli; label from the status in PepcDB or PDB records.
On to “SLRVYIYEYAVATGDEEFLAEGRAMLESLLRAFAKSGYETLTVAHPSVGVRWADEVLRDETQALECADLTLVIAPESDGLLESKVREYSRETEVIGPTPRAIRVAADKRKTEDALRDARSFQLPTREADVMVSKPADGAGSEGVRIGRGELSRELIPGSHHSLLCVSDGETVDVLGINDQFVAFAGRELVYLGGRTPSDHRELTRIARDIAEEVVERIPGLVGLFGVDLVMKGGEPYLIEVNPRPTTPTVAAALEHPEAVVRSLLEGPTGKVLRYRREYVYVKRGAEALVPEKFEVVEDFHGLRVYRG”, for which the “soluble on expression in E. coli” value is “soluble”.
In the case of “MKRLEVSNQAKLPTQFGEFYIQCFREKGSNGSKDHLVVFTPNFSQNPLVRLHSECLTGDALGSQKCDCGGALQMALERISKEGGLVIYLRQEGRGIGLFNKVNAYALQDKGYDTIQANEMIGFKDDERDYSVAGEILEYYRIKKMRLLTNNPKKIAALEKYAEVTRESLIVCANEHNQGYLEVKKLKMGHLLLEHHHHHH” it was “soluble”; in that of “MGHHHHHHSHMANSAGSMANSAGSMFKLYSLAREFARDLLFEINGDVVTLSIKGVLLANTSSTSSNFSIFEVSENEFILAIQTSGYVVYLGIEAEEEIEEEVYPSLVRIIISEVMPIINNLVQVAKELSYKGADILLDDNMSSSLREAMYNLLLKHKKGKSPYEQVEVA”, “not soluble”; in that of “MPPRKIKKDPAVVAMADTLETRVKDLLEEYKKKLREVALQTAKAESDRIIATIKPKYRDMPIMEFLASPPDDFYIESGEEEEEGEAAVAVKQELPSEPDMEIDDAAAAQKTSIPIGQNSGRNTVQVKQEPEIDDDAAHETSIPIAPSGQNSGRNTAADEHRRNEIITPAGQVLPLPTLQPEKPFRAPHVDEEIAFSVNGSPLVLAGRTTATAAGKENRKKSKKSGAASKKAAAAAGPLQPETENAGTSV”, “not soluble”.
In the case of “MGSDKIHHHHHHMTDVAKFGISRLDELLGGGLDRYTENLIIGRSGIGKTILAAHWAAEGARNDETVVYLSTTMNKKNCKAYLGRFPFMEDVYDKIKWRFIRVDPKFVLPLTREKIVEGLRATFGMDGKDIDRVVFDSCTDLELALADPVLYRRALTYMSDLSYDYEITSLWIEEAPMQGDWSSTKNIVDSVIFLNLLRTQEGYQRAMRILKKYRTRVPLEWIPYEITDEGVVIKDGYIVKRSYDYEYKRG” it was “not soluble”; in that of “MLKSELRKKVLHKRINLSEEERRRLSEKVISNLKSLPEFKKSKKVALYCPIKGEVDLTPLFPEVLKEKELILPKVEGNEISLYRVHSPACLGVGAFGIMEPVEGERVNPEDVDFIAVPGVAFDLEGYRLGFGKGYYDRLLKRVKGLKVGVAYSFQVFERLPRDAWDIPVDVLVTEKNVRRLRDGRSLEHHHHHH”, “soluble”.
Next, “MGSDKIHHHHHHMIKLSYLTSYITCPRLCYFRVHVGEKRFTELTAVREIYLSLKQGFDLDWAKKRAKALHGAFDEEAFRSAANKFIFPQIDCKSVEVDATIKSKSLGLLVSVDEIVECDGELLPLFLGLNPPENGVWFKDMVKAGAAALAGNYSKALIYYGYTGDLRPVEVTFSLKKKVIKLIERVKLIQRGFLPERKESRYCNYCSFSEDCKSRAETFASKFL”: “not soluble”; “MATVHKVGDSTGWTTLVPYDYAKWASSNKFHVGDSLLFNYNNKFHNVLQVDQEQFKSCNSSSPAASYTSGADSIPLKRPGTFYFLCGIPGHCQLGQKVEIKVDPGSSSA”: “soluble”; “MGSDKIHHHHHHMPLPQVTMQELPWKMKKSLSRSTLRSPNGFSEIGLKLEMVSQDALRRTIFPLGGLTKEFVKKIAAENRLHHVLQKKESMGMCFIGKRNFEHFLLQYLQPRPGHFISIEDNKVLGTHKGWFLYTLGQRANIGGLREPWYVVEKDSVKGDVFVAPRTDHPALYRDLLRTSRVHWIAEEPPAALVRDKMMECHFRFRHQMALVCCVLQGGRVPGQREDPAAGAVCLHAPEGPAQSWDGH”: “not soluble”.
Take “MVFFSVVVPTYNRRPILEKCLRALEQQQISAETAIAGYEVVVVDDGSTDGTVDWLKAQASEFPHVRLFEQDHQGPARARNLGVQQAQGDTIIFIDSDLVVTPPFLQAHATGLEKGRQRLGSDRCFTYGAVINTCNFDNPTAEPFKVTDFSNAYFATGNVAIARHWLETAGLFDTAFQLYGWEDLELGVRLKNLGLKLIRCPEAVGYHWHPPFSLEQIPKLIDQESQRGRMGVLFYQKHPTWEVRLMIQMTWLHRLLWGTLSLGGFLNERTLRPLLAWLLKRDRPQLALEIARIFLNWNNVRSVYAAYRESQGLASSLEHHHHHH”: the “soluble on expression in E. coli” value was “soluble”.
Next, “MPTSIQFQRSSTAAEAANATVRNYPHHHQKQVQKVSLTRGMADVPEHVELSHTHVVGPSQCFSVVVQDVEAPVSTVWSILSRFEHPQAYKHFVKSCHVVIGDGREVGSVREVRVVSGLPAAFSLERLEIMDDDRHVISFSVVGGDHRLMNYKSVTTVHESEEDSDGKKRTRVVESYVVDVPAGNDKEETCSFADTIVRCNLQSLAKLAENTSKFS”: “not soluble”; “SGRTWREADINYTSGFRNSDRILYSSDWLIYKTTDHYQTFTKIRCAQVINTFDGVADYLQTYHKLPDNYITKSEAQALGWVASKGNLADVAPGKSIGGDIFSNREGKLPGK”: “soluble”; “MGDIMLIILTGLPGVGKSTFSKNLAKILSKNNIDVIVLGSDLIRESFPVWKEKYEEFIKKSTYRLIDSALKNYWVIVDDTNYYNSMRRDLINIAKKYNKNYAIIYLKASLDVLIRRNIERGEKIPNEVIKKMYEKFDEPGKKYKWDEPFLIIDTTKDIDFNEIAKKLIEKSKEIPKFYVLEENKNKNNNISDKIDKETRKIVSEYIKSKKLDKDKIKEVVELRKEFLKKIKKMEEVDADRVLKEFKDLLNSYLEHHHHHH”: “soluble”.
In the case of “SEDNQRSRFRKICVFCGSHSGHREVFSDAAIELGNELVKRKIDLVYGGGSVGLMGLISRRVYEGGLHVLGIIPKALMPIEISGETVGDVRVVADMHERKAAMAQEAEAFIALPGGYGTMEELLEMITWSQLGIHKKTVGLLNVDGYYNNLLALFDTGVEEGFIKPGARNIVVSAPTAKELMEKMEEYTPSHMHVASHESWKVEELGDYPGQENKPQ” it was “soluble”.
Next, “VKKNGLGEIKSIYIDDNVSGSGFERRGIYELKRDVMEGKINLLVLKDLSRLGRNNAKTLLFLDFLEENGVRVVTFDGRYDSLKDNDIVGIETWFNERYILDISRKIRANLRFKIQKGEYIGHAPFGYEKSPYEKNRLIVNEEEAGIVRRIYSLYKEGYGYSYIAGILNSEGVKSPSNGRWNPTAIRRILLNRVYTGDTVQGVSEKISFKSKKTRRLPKERWVITENTHEPIVSKEEYEEIQRIRNNKNARPVPHKGIIHVFRGSIFCGGCGSVMFARKRHNRPMSYICSSYAKEGRTACTSHSIREKDLCEVVLDDVAKLLDDENMVNKILQKIDLAGAAEDYQTLREKLLKQMEAKQKQQEILYQDRLENKISESLFLRMNNRLENRISEIKREIAQLDLRKSEFVTSEEKIAKLKNYITNNGITNEIVKIVINRIIVFDKGDNYLEEKWNLNLSQKEKRYIELYGAVLIEYGF”: “soluble”.
As for “MGSDKIHHHHHHMNLKQLRYFVTICEEGQITAAAKRLHIKQPLLSYEIKQLELELETSLFIRGPRGISLTDAGKVLKPYAEQITELSDVAKTKVKYLDKGISGSLSIGSISSSINKLPNQRLLKLKKYYPNIAINVIEGNTYKLLGYLEKGLIDLAILRTPFSSKGVIGYYFDKEPMVAVSAKNNQKDTVGLPDKYLKIDDLSNKPLIIYRRFKELIENTFRNLGFNPLIVVRCDDARTALDGAKVGFGTAIVPKSAILQVENEGEKDIEFREIKEKALETQLAIMWRRDDSFNPLTENFLKMFIGK”, the “soluble on expression in E. coli” value was “not soluble”.
In the case of “MGSDKIHHHHHHMLTTPEMREQFRNDGVTIFRNCLNEAQLAQCYDGFKWDMANPGPHVYKGGLIGTTLHTHIDIANPEAKSELDDLAAALPFGQIFQELWDSKNVWYFAEEIFAKEGGKSGRGPWHQDTANLPWAGRHWGNAWISFQKLPKKNSLEIVRGSHLGIQYDGASFDSAEDPTDPLYGDGTYPRLPHIDNELARDPNSWDIVSFDINPGDIVLLHPRSLHGGAQVDADCPTRHTLVLRFFGDDATFRELPTCNPKYARNGPLFQKEMAKLNQGDAFRSPVFRQVAGV” it was “not soluble”; in that of “MSLSGKNNIELDSWKKAINVISKNMDNGRIGIVQGPPGTGKTTIYANAFSRYFDKLGDGNIIVYIAPTNELVYDMFKKVGSEYAKRGAIDRISHEVRVYGSIFDQDPSIRSIREPPSMETKIVLMTNYQRLYPGNNRFNYNVMIDEASKSPLHTAFIGLANQLAKDELDGSISIVGDPMQAISLGPYQGSARRMLIMSYLLAPMLNHSSRDLNDRELLAEAKRSAIRGSSFEFLEVTLRMPSPSEEAISKGFYDNDLRAYRSASQILHSNYEANKLRELATEKEQMRKITEKVEELISTGRCILYERVNEKKSYDSNYYRKYGLTYDPTRAELGIETAIALAAGTGKHTTVITTYVDQQIQMDLLMRRKYGYILEKYGIRDQISFSTTQSFLGAEDDNIVAVLGKEYSISTYTQNYSTSTYNEGDPSTIYFNEPEVLNVQLSRHKMLLAIIGNLSILASQAAEGHHHHHH”, “not soluble”; in that of “MGSDKIHHHHHHMSVSSTIEWTEATWNPTTGCHKISPGCKNCYAERFAERWRGVAGHPYEQGFDVKTWHERLKMPLSWKKPRLIFVNSMSDLFLDDISEEFIKDVFNVMEEASWHQFQVLTKRPQRMLKIANSIKKWPSNIWAGVSIESQAWVWRSEILKEIPAKIRFLSCEPLLGSLTLSLDELHWIIVGGESGVGARPMNIEWVRDIREQCIQANVPFFFKQWGGIQKKKYGREIDGRTWDGFPETIVDKNTKQVSPVK”, “not soluble”.
On to “KNFHVVLEAAWLVRDVKTADDAIGVAISEAGKRLNPKLDFVEVDVGTTSCPVCGEPFSSVFIAANTALVGLIFEMKVFDAESAEHAERIAKSVIGKSLRDVP”, for which the “soluble on expression in E. coli” value was “not soluble”.
“MGSDKIHHHHHHMQDIKDLTAVLRSNTPIVVIETYEEYRVIELLKRVAMTLYQPLFTWSVTSGLSRVDKDMGSQKFNTEPAELLGQIKSTQQQGIYVLCDFHPFVQDAPRNVRLLKEIALEYDALKHTLVLVSHAFEIPPEIRRYCAHFRLSLPSRNQLENLIVEEIDKVRRQGLPLVADESAIARLADNLRGVTFDDARRLIHKAIVDDGAITHDDVERVNQAKFRLMDMDGVLRYEYDTSSFSDIAGLHNLKEWLKARAPELSPQSSAPPPKGILLLGVQGSGKSLAAKAVAGAWQRPLLRLDMAALYNKYIGETEKNLRQALELADLMSPCVLWVDEIEKGISGSSSDEGTSQRILGTLLTWMAERKSDVFLVATANDIQALPPELMRKGRMDEIFFVDLPDEEIRKAIFLIHCKKRGVDVTSMDLGLLSRASQGFSGAEIEQAVISAIYSAASRRQPVEQAIILEELSRTRPLSVVMREKIDSLRAWAKGRTMNAHLD”: the “soluble on expression in E. coli” value was “not soluble”.
In the case of “MSERDAIRAFSHMLETIFVRMRAEGTGSQTDAMQRWLDLYNVGSLPIDKKSYKALRLMDRETTDQQKEDATCAICLDNLQNNVDIPEDHVIKEELKIDPTTFGTTVIVMPCKHRFHYFCLTLWLEAQQTCPTCRQKVKTDKEVEEEERQRNLEELHDSMYG” it was “not soluble”; in that of “MGSDKIHHHHHHMNAVLQKKGGVGIIILARLDSTRLPGKALRTAAGKEMLGYVVERARMVRGVSEIVLATTDRTVDDRLEEYAAACDLAVFRGSDVDVAGRVAACVRWRGWDAFVRINGDSPFIDPQTISSAVNLLYGLGGVSAAGLSDSHAQRGNMHAECASLPLVACGSVTLAGYAGHDATELPDMVTNVLRRTFPKGQSVEVCRASAFLAGYAAMHLPEHLEHVTKYFYDTRSIRIMNMESGDPSLGEIQLAVDTEEDFALFERMLARMDRPHTAYAAHEIIELYRECLHG”, “not soluble”.
